The record followed here is publication PMC4803054 (Genes & Development, 2016).

Common to all, as to assay: pull-down
The target in one experiment is Mph1-MHF complex (S. cerevisiae, UniProt P40562 1-993; Q3E835 1-90; Q3E829 1-80).
A further experiment concerns the target MHF complex (Mhf1-Mhf2) (S. cerevisiae, UniProt Q3E835 1-90; Q3E829 1-80).
In experiment [1] the target is T1, Mte1 (GST tag cleaved off) (S. cerevisiae, UniProt P53227 1-271).
T1 sequence (looked up): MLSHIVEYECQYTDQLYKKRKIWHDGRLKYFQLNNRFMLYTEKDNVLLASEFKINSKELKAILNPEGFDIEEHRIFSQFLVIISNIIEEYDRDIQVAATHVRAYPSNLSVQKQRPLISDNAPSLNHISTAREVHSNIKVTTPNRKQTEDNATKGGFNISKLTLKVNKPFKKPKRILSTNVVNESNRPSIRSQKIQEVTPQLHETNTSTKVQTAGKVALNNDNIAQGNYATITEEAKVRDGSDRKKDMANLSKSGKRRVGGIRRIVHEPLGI

B1: GST-Mte1 fragment 201-271 (domain or fragment)
chain: LHETNTSTKVQTAGKVALNNDNIAQGNYATITEEAKVRDGSDRKKDMANLSKSGKRRVGGIRRIVHEPLGI
Turning to B1, the binding result with Mph1-MHF complex was “binds”.

B2: MBP-tagged Mph1(754–993) (domain or fragment, S. cerevisiae, UniProt P40562 754-993, looked up)
chain: SNENPSKKRKIFKALDNLENDSTEEASSSLETEDEEVSDDNNVFIAEGQNGCQKDLETAIIRTGESLTTLKPLHNFERPNMALFVNDCGLPTKIEKNVKDIRGNQHNLEKEKSCTVDKNNMVLSLDDWNFFRNRYIPEGVSFDVEPNFVQYTKGVKVPHCHKVSKIITLFNDESNDNKKRTIDMNYTKCLARGMLRDEKKFVKVNDKSQVDNNSVNHDSSQSFTLSNAELDDILGSDSDF
As for B2, the binding result (with MHF complex (Mhf1-Mhf2); in experiment [1]) was “binds” in each case.
